Source: US10100120B2, “Antibody which specifically binds to human CRTH2” (KYOWA HAKKO KIRIN CO., LTD, priority 2015, dated 2018)

Target: T1, mutated human CRTH2 with amino acid substitution (Homo sapiens, UniProt Q9Y5Y4, N185A/Y183A/Y184A)
T1 construct: inserting genes encoding various mutants with amino acid substitution obtained by deleting termination codons; expressed in transfected cells; host or cells: CHO-S cells (Lifetechnologies), transient (phmAG1-MNLinker vector)
T1 sequence (Q9Y5Y4 1-395 Y183A/Y184A/N185A): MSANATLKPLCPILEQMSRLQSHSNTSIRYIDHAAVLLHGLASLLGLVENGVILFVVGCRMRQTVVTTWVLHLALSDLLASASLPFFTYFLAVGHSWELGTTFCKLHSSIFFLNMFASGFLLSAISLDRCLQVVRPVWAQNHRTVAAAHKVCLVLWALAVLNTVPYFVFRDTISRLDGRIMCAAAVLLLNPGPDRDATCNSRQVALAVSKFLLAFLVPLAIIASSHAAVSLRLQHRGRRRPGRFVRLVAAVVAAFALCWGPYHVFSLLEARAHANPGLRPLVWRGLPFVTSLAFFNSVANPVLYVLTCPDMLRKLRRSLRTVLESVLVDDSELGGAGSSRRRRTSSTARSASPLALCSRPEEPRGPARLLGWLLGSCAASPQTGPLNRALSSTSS
Test: Epitope analysis using CHO-S cells which express mutated human CRTH2 with amino acid substitution
Format: binding
Settings: mutant Y183A, Y184A, and N185A; antibody 10 μg/mL; relative to wild-type = 100%
Outline: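 CHO-S cells transiently expressing alanine-substituted human CRTH2 extracellular mutants, C-terminally Azami-Green tagged, 24 h post-transfection. Antibodies at 10 μg/mL, 4 °C 1 h, then Alexa647 anti-IgG secondary 4 °C 1 h; flow cytometry on Azami-Green-positive cells. Reactivity = Alexa647 intensity divided by Azami-Green intensity.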

B1: LV0HV1: humanized Lym2 antibody, VL LV0 (SEQ ID NO: 33), VH HV1 (SEQ ID NO: 51) (antibody, V domains shown)
VH: EVQLVESGGGVVQPGRSLRLSCAASGFTFSNYYMAWVRQAPGKGLEWVATISYDGSSTYYRDSVKGRFTISRDNAKNSLYLQMNSLRAEDTATYYCARHRGYYYSGAGYFDYWGQGTMVTVSS
VL: DIVMTQTPLSLPVTPGESASISCRSSQSLEYSDGYTYLEWYLQKPGQSPQVLIYGVSNRFSGVPDRFSGSGSGTDFTLKISRVEAEDVGVYYCFQATHDPLTFGQGTKLEIK
  reactivity against cells expressing mutated human CRTH2: lost
